In patent US12618845B2, “Methods and compositions for protein sequencing” (Quantum-Si Incorporated, priority 2018, dated 2026):

B1: Agrobacterium tumifaciens ClpS1: amino acid recognition protein, SEQ ID NO: 4 (protein, listed as Agrobacterium tumifaciens)
chain: MIAEPICMQGEGDGEDGGTNRGTSVITRVKPKTKRPNLYRVLLLNDDYTPMEFVIHILERFFQKDREAATRIMLHVHQHGVGECGVFTYEVAETKVSQVMDFARQHQHPLQCVMEKK
B2: GID4: GID4 evaluated as a potential reagent for proline recognition; species not stated at the place (protein, UniProt Q8IVV7 1-300, looked up)
Glucose-induced degradation …: MCARGQVGRGTQLRTGRPCSQVPGSRWRPERLLRRQRAGGRPSRPHPARARPGLSLPATLLGSRAAAAVPLPLPPALAPGDPAMPVRTECPPPAGASAASAASLIPPPPINTQQPGVATSLLYSGSKFRGHQKSKGNSYDVEVVLQHVDTGNSYLCGYLKIKGLTEEYPTLTTFFEGEIISKKHPFLTRKWDADEDVDRKHWGKFLAFYQYAKSFNSDDFDYEELKNGDYVFMRWKEQFLVPDHTIKDISGASFAGFYYICFQKSAASIEGYYYHRSSEWYQSLNLTHVPEHSAPIYEFR
B3: Synechococcus elongatus ClpS2: amino acid recognition protein, SEQ ID NO: 11 (protein, listed as Synechococcus elongatus)
chain: MSPQPDESVLSILGVPRPCVKKRSRNDAFVLTVLTCSLQAIAAPATAPGTTTTRVRQPYPHFRVIVLDDDVNTFQHVAECLLKYIPGMTGDRAWDLTNQVHYEGAATVWSGPQEQAELYHEQLRREGLTMAPLEAA
B4: Thermosynechococcus elongatus ClpS: amino acid recognition protein, SEQ ID NO: 12 (protein, listed as Thermosynechococcus elongatus)
chain: MPQERQQVTRKHYPNYKVIVLNDDFNTFQHVAACLMKYIPNMTSDRAWELTNQVHYEGQAIVWVGPQEQAELYHEQLLRAGLTMAPLEPE
B5: H. sapiens Fyn SH2 domain triple mutant superbinder: amino acid recognition protein, SEQ ID NO: 23 (protein, listed as Homo sapiens)
chain: MGAMDSIQAEEWYFGKLGRKDAERQLLSFGNPRGTFLIRESETVKGAYALSIRDWDDMKGDHVKHYLIRKLDNGGYYITTRAQFETLQQLVQHYSERAAGLSSRLVVPSHK

How the values were obtained:
[1] = test system: N-terminal amino acid of peptides; experiment: Single-molecule terminal amino acid discrimination by labeled affinity reagent (dwell time analysis); type: binding; conditions: for Terminal amino acid recognition: single molecule traces, dwell time analysis
Protocol: An adaptor protein involved in proteolytic pathways was identified as a potential candidate for use as a labeled affinity reagent for detecting N-terminal aromatic residues. The adaptor protein, ClpS2 from an α-proteobacterium (A. tumefaciens), was expressed and labeled at an exposed cysteine residue. […] The exposed cysteine residue was labeled with a rhodamine dye (ATTO 532).
Peptides having different N-terminal aromatic residues were prepared to test whether the labeled ClpS2 was capable of N-terminal amino acid discrimination at the single molecule level.
FIG. 19C is a plot showing discriminant pulse durations (time duration of signal peaks) among the three N-terminal residues when reversibly bound by labeled ClpS2. FIG. 19D is a plot showing discriminant interpulse durations (time duration between signal pulses) among the three N-terminal residues. […] Mean pulse duration for the different N-terminal residues is visualized by histograms (A)-(B) and layered histogram (C).

[2] = test system: immobilized peptide FYPLPWPDDDY with N-terminal phenylalanine; experiment: Simultaneous single-molecule recognition with differentially labeled recognition molecules; type: binding; conditions: 500 nM each binder
Protocol: Single peptide molecules containing N-terminal phenylalanine ([…] (SEQ ID NO: 79)) were immobilized in sample wells of a chip. Buffer containing 500 nM each of at ClpS1 (Agrobacterium tumefaciens ClpS1; sequence provided in Table 1) and at ClpS2-V1 (Agrobacterium tumefaciens ClpS2 variant 1; sequence provided in Table 1) was added, where at ClpS1 and at ClpS2-V1 were labeled with Cy3 and Cy3B, respectively. Since the intensity of Cy3B is higher than Cy3, at ClpS2-V1 binding events were readily distinguishable from at ClpS1 binding events.
The pulse duration distributions were distinct for each binder (FIG. 24B) and corresponded to their kinetic profiles as observed in single-binder experiments. Mean pulse duration was 1.3 seconds for at ClpS1 and 1.0 seconds for at ClpS2-V1 (FIG. 24C). Pulse rate was also distinct: 8.1 pulses/min for at ClpS1 and 14.1 pulses/min for at Clp2-V1 (FIG. 24C). Thus, when more than one recognition molecule is included for dynamic recognition of immobilized peptides, the binding characteristics of each recognition molecule (including pulse duration, interpulse duration, and pulse rate) can simultaneously provide information about peptide sequence.

[3] = test system: amino acid at a terminal position of a polypeptide; conditions: amino acid identity at a terminal position of a polypeptide; phospho-Y also at an internal position; cited from earlier work
[4] = target: fluorescently-labeled peptides with N-terminal phospho-tyrosine, tyrosine or phospho-serine (Homo sapiens, UniProt P06241, C239S/C240S/C246S/K204L/S186A/T181V); experiment: Single-molecule recognition of post-translationally modified amino acids by immobilized SH2 domain variant

Row | Molecule | Terminal amino acid recognition [1] | Binding Pref. [3] | also measured
1 | B1 | differentiable recognition of phenylalanine, leucine, tryptophan, and tyrosine | F, W, Y, L | Mean pulse duration [2]: 1.3 s; Pulse rate [2]: 8.1 pulses/min
2 | B2 | proline recognition |  | 
3 | B3 | leucine recognition | F, W, Y, L, and V, I | 
4 | B4 |  | F, W, Y, L | Mean pulse duration ([1]; terminal leucine residue of polypeptides): 0.71 s
5 | B5 |  | phospho-Y | Peptide binding by the immobilized protein ([4]; peptide with N-terminal and penultimate unmodified tyrosines (YY)): not detected; Peptide binding by the immobilized protein ([4]; peptide with N-terminal phospho-serine): not detected; Peptide binding by the immobilized protein ([4]; peptide with N-terminal phospho-tyrosine): detected; Peptide binding by the immobilized protein ([4]; peptide with N-terminal unmodified tyrosine (Y)): not detected
